Data taken from paper PMC12217647, “Mid‐Regional Proadrenomedullin Can Be Reliably Measured in Cerebrospinal Fluid to Improve Diagnosis of Central Nervous System Diseases” (Journal of Clinical Laboratory Analysis, 2025).
Where “and” joins values, the source holds several entries; their conditions need not be identical. Identical values can stand only once.

How the values were obtained:
[1] = MR‐proADM stability in CSF at room temperature (B.R.A.H.M.S. MR‐proADM KRYPTOR fluoroimmunoassay); type: in vitro ADME, human
Description: (§1) MR‐proADM concentrations were measured in CSF using the B.R.A.H.M.S. MR‐proADM fluoroimmunoassay on the Brahms Kryptor Gold Analyzer (THERMO […], Hennigsdorf, Germany), which is a fully automated homogeneous phase random access platform. The system uses the TRACE (Time‐Resolved Amplified Cryptate Emission) technology to measure the fluorescence signal emitted by an immunocomplex. MR‐proADM results are expressed in nmol/L. The declared linearity in plasma EDTA samples ranges from 0.21 to 100 nmol/L, with a maximum bias of ±20%. The manufacturer's reference range for EDTA plasma samples is < 0.56 nmol/L, corresponding to the 97.5th percentile of a control series, which disclosed a median value of 0.38 nmol/L. The Limit of Detection (LoD) is 0.09 nmol/L, while the Limit of Quantitation (LoQ) is 0.21 nmol/L (IFU_B.R.A.H.M.S. MR‐proADM KRYPTOR assay; 07 April 2022; Thermo Scientific, Hennigsdorf, Germany). This MR‐proADM immunoassay is currently certified only for plasma‐EDTA blood samples, and the manufacturer recommends immediate centrifugation to preserve molecular stability at room temperature (18°C–25°C) or at 2°C–8°C up to 24 h. Afterwards, samples should be aliquoted and frozen at −20°C or below. Plasma samples can be kept frozen up to 14 days, and the analyte is considered stable for up to 4 freeze/thaw cycles.
(§2) According to the recommendations in plasma, MR‐proADM was measured in clear CSF samples after centrifugation to avoid interference by cells or other microparticles. Bloody CSF samples were discarded. The first step was aimed at assessing MR‐proADM stability in CSF as a function of different storage temperatures and storage time after collection. To test room temperature stability in CSF, we measured MR‐proADM in 10 fresh samples (T0) and after 12, 24, and 48 h (T1, T2, T3) on the bench (25°C). To test recovery after storage at −20°C, we measured MR‐proADM concentration in 29 CSF samples stored frozen for less than 15, 16 to 60, and more than 60 days. Finally, to test recovery after storage at −80°C, we measured MR‐proADM concentration in 25 CSF samples before and after a variable period of storage at −80°C. The second step of our study was to evaluate the analytical performance of the B.R.A.H.M.S. MR‐proADM method using CSF samples. For this purpose, we evaluated the repeatability and the within‐laboratory precision of this assay. Due to the small amount of CSF volume obtained from each residual sample, 58 CSF samples were pooled in 3 subgroups according to their MR‐proADM values, thus creating 3 pools of about 5 mL volume each, characterized by low, medium, and high MR‐proADM concentration. These pools were finally stored at −20°C.
(§3) To assess the difference between measures of MR‐proADM in fresh samples and after storage at room temperature, at −20°C, and at −80°C, we used the Wilcoxon matched‐paired T test, considering significant p < 0.05.

[2] = MR‐proADM stability in CSF samples stored at −20°C; type: in vitro ADME, human; details: for Mean difference pre and post freezing: mean of samples
Description: as §1
as §2, with “−20°C. […]” for “−20°C.”

[3] = body fluids; statement of the introduction; cited from earlier work
[4] = MR‐proADM stability in CSF samples stored at −80°C; type: in vitro ADME, human
Description: as §1, §2, §3

[5] = plasma‐EDTA, ref IFU_B.R.A.H.M.S. MR‐proADM KRYPTOR assay, 07 April 2022, cited from earlier work
Description: MR‐proADM concentrations were measured in CSF using the B.R.A.H.M.S. MR‐proADM fluoroimmunoassay on the Brahms Kryptor Gold Analyzer (THERMO […], Hennigsdorf, Germany), which is a fully automated homogeneous phase random access platform. The system uses the TRACE (Time‐Resolved Amplified Cryptate Emission) technology to measure the fluorescence signal emitted by an immunocomplex. MR‐proADM results are expressed in nmol/L. The declared linearity in plasma EDTA samples ranges from 0.21 to 100 nmol/L, with a maximum bias of ±20%. The manufacturer's reference range for EDTA plasma samples i ...

Mid‐regional proADM (ELRMSSSYPTGLADVKAGPAQTLIRPQDMKGASRSPEDSSPDAARIRV; MR-proADM; UniProt P35318 45-92, looked up, fragment) [MR‐proADM]
MR‐proADM concentration, After 12 h ([1]; CSF on the bench at room temperature (25°C) for 12 h, individual samples S1–S10, one line per sample, p = 0.2918 vs fresh): 0.45 nmol/L and 2.67 nmol/L and 0.80 nmol/L and 1.11 nmol/L and 1.23 nmol/L and 0.91 nmol/L and 1.07 nmol/L and 0.96 nmol/L and 1.63 nmol/L | MR‐proADM concentration, After 24 h ([1]; CSF on the bench at room temperature (25°C) for 24 h, individual samples S1–S10, one line per sample, p = 0.6760 vs fresh): 0.51 nmol/L and 2.61 nmol/L and 0.80 nmol/L and 1.15 nmol/L and 1.25 nmol/L and 0.93 nmol/L and 1.09 nmol/L and 0.92 nmol/L and 1.67 nmol/L | MR‐proADM concentration, After 48 h ([1]; CSF on the bench at room temperature (25°C) for 48 h, individual samples S1–S10, one line per sample, p = 0.1515 vs fresh): 0.45 nmol/L and 2.74 nmol/L and 0.78 nmol/L and 1.14 nmol/L and 1.27 nmol/L and 0.93 nmol/L and 1.12 nmol/L and 0.97 nmol/L and 0.99 nmol/L and 1.64 nmol/L | Stability in CSF samples stored at room temperature (in words) ([1]; CSF, 25°C, 12, 24 and 48 h, n = 10 samples, no significant difference from fresh): highly stable | Storage time at room temperature over which MR‐proADM remains highly stable in CSF ([1]; CSF, room temperature (25°C)): ≤ 48 h | MR‐proADM concentration, Fresh ([1]; T0 baseline, clear centrifuged CSF, 10 individual samples S1–S10, one line per sample, TRACE fluoroimmunoassay, Kryptor): 0.45 nmol/L and 2.67 nmol/L and 0.79 nmol/L and 1.15 nmol/L and 1.23 nmol/L and 0.92 nmol/L and 1.07 nmol/L and 0.94 nmol/L and 0.98 nmol/L and 1.65 nmol/L | Mean difference pre and post freezing ([2]; CSF stored at −20°C for less than 15 days): 14.2% | Mean difference pre and post freezing ([2]; CSF stored at −20°C for more than 60 days): 18.6% | Mean difference pre and post freezing ([2]; CSF stored at −20°C from 16 to 60 days): 15.9% | Percentage reduction in some samples ([2]; CSF stored at −20°C, worst cases): up to 50% | half‐life compared with ADM (in words) [3]: longer half‐life | Stability in CSF samples stored at −80°C (in words) ([4]; 25 CSF samples, variable storage time at −80°C): quite stable | Decrement, half of the samples ([4]; CSF stored at −80°C, 25 samples): ≤ 10% | Loss of recovery / decrement versus fresh, majority of cases ([4]; CSF stored at −80°C, p < 0.001 vs fresh): less than 10% | Storage time at −80°C with very good stability ([4]; CSF, −80°C): at least 24 months | MR‐proADM concentration, Fresh ([4]; baseline before storage at −80°C, 25 individual CSF samples S1–S25, one line per sample): 0.55 nmol/L and 0.56 nmol/L and 0.77 nmol/L and 0.51 nmol/L and 0.53 nmol/L and 0.59 nmol/L and 0.66 nmol/L and 0.70 nmol/L and 0.89 nmol/L and 1.00 nmol/L and 0.43 nmol/L and 0.57 nmol/L and 0.64 nmol/L and 0.69 nmol/L and 0.75 nmol/L and 0.62 nmol/L and 0.71 nmol/L and 0.73 nmol/L and 0.79 nmol/L and 0.54 nmol/L | Time of molecular stability after centrifugation ([5]; room temperature (18°C–25°C) or 2°C–8°C): up to 24 h | Time plasma samples can be kept frozen ([5]; −20°C or below): up to 14 days | Freeze/thaw cycles over which the analyte is considered stable [5]: up to 4 freeze/thaw cycles
